Reference: paper doi:10.1101/2023.11.02.565309 (bioRxiv, 2023)

Target: the molecule itself
Experiment: crystal structure

B1: ligand-binding domain of GluK2 (GluK2-LBD), S1-GT-S2 construct (domain or fragment, Rattus norvegicus)
chain: NRSLIVTTILEEPYVLFKKSDKPLYGNDRFEGYCIDLLRELSTILGFTYEIRLVEDGKYGAQDDVNGQWNGMVRELIDHKADLAVAPLAITYVREKVIDFSKPFMTLGISILYRKGTPIDSADDLAKQTKIEYGAVEDGATMTFFKKSKISTYDKMWAFMSSRRQSVLVKSNEEGIQRVLTSDYAFLMESTTIEFVTQRNCNLTQIGGLIDSKGYGVGTPMGSPYRDKITIAILQLQEEGKLHMMKEKWWRGNGCP
  stoichiometry N: 2
